Experimental data as given in patent publication US20260183373.

How the values were obtained:
[1] = biological target: Aβ(1-40), P05067
[2] = biological target: Aβ(1-42), P05067

B1: endothelin-converting enzyme 2 (ECE2) (protein)
chain: GVQYHRDPSHSTCLTEACIRVAGKILESLDRGVSPCEDFYQFSCGGWIRRNPLPDGRSRWNTFNSLWDQNQAILKHLLENTTFNSSSEAEQKTQRFYLSCLQVERIEELGAQPLRDLIEKIGGWNITGPWDQDNFMEVLKAVAGTYRATPFFTVYISADSKSSNSNVIQVDQSGLFLPSRDYYLNRTANEKVLTAYLDYMEELGMLLGGRPTSTREQMQQVLELEIQLANITVPQDQRRDEEKIYHKMSISELQALAPSMDWLEFLSFLLSPLELSDSEPVVVYGMDYLQQVSELINRTEPSILNNYLIWNLVQKTTSSLDRRFESAQEKLLETLYGTKKSCVPRWQTCISNTDDALGFALGSLFVKATFDRQSKEIAEGMISEIRTAFEEALGQLVWMDEKTRQAAKEKADAIYDMIGFPDFILEPKELDDVYDGYEISEDSFFQNMLNLYNFSAKVMADQLRKPPSRDQWSMTPQTVNAYYLPTKNEIVFPAGILQAPFYARNHPKALNFGGIGVVMGHELTHAFDDQGREYDKEGNLRPWWQNESLAAFRNHTACMEEQYNQYQVNGERLNGRQTLGENIADNGGLKAAYNAYKAWLRKHGEEQQLPAVGLTNHQLFFVGFAQVWCSVRTPESSHEGLVTDPHSPARFRVLGTLSNSRDFLRHFGCPVGSPMNPGQLCEVW
[1]
  Aβ cleavage (ELISA-based assay of intact Aβ): ECE2 and ACE were completely inactive on both Aβ isoforms
[2]
  Aβ cleavage (ELISA-based assay of intact Aβ): ECE2 and ACE were completely inactive on both Aβ isoforms

B2: angiotensin-converting enzyme (ACE) (protein)
chain: LDPGLQPGNFSADEAGAQLFAQSYNSSAEQVLFQSVAASWAHDTNITAENARRQEEAALLSQEFAEAWGQKAKELYEPIWQNFTDPQLRRIIGAVRTLGSANLPLAKRQQYNALLSNMSRIYSTAKVCLPNKTATCWSLDPDLTNILASSRSYAMLLFAWEGWHNAAGIPLKPLYEDFTALSNEAYKQDGFTDTGAYWRSWYNSPTFEDDLEHLYQQLEPLYLNLHAFVRRALHRRYGDRYINLRGPIPAHLLGDMWAQSWENIYDMVVPFPDKPNLDVTSTMLQQGWNATHMFRVAEEFFTSLELSPMPPEFWEGSMLEKPADGREVVCHASAWDFYNRKDFRIKQCTRVTMDQLSTVHHEMGHIQYYLQYKDLPVSLRRGANPGFHEAIGDVLALSVSTPEHLHKIGLLDRVTNDTESDINYLLKMALEKIAFLPFGYLVDQWRWGVFSGRTPPSRYNFDWWYLRTKYQGICPPVTRNETHFDAGAKFHVPNVTPYIRYFVSFVLQFQFHEALCKEAGYEGPLHQCDIYRSTKAGAKLRKVLQAGSSRPWQEVLKDMVGLDALDAQPLLKYFQPVTQWLQEQNQQNGEVLGWPEYQWHPPLPDNYPEGIDLVTDEAEASKFVEEYDRTSQVVWNEYAEANWNYNTNITTETSKILLQKNMQIANHTLKYGTQARKFDVNQLQNTTIKRIIKKVQDLERAALPAQELEEYNKILLDMETTYSVATVCHPNGSCLQLEPDLTNVMATSRKYEDLLWAWEGWRDKAGRAILQFYPKYVELINQAARLNGYVDAGDSWRSMYETPSLEQDLERLFQELQPLYLNLHAYVRRALHRHYGAQHINLEGPIPAHLLGNMWAQTWSNIYDLVVPFPSAPSMDTTEAMLKQGWTPRRMFKEADDFFTSLGLLPVPPEFWNKSMLEKPTDGREVVCHASAWDFYNGKDFRIKQCTTVNLEDLVVAHHEMGHIQYFMQYKDLPVALREGANPGFHEAIGDVLALSVSTPKHLHSLNLLSSEGGSDEHDINFLMKMALDKIAFIPFSYLVDQWRWRVFDGSITKENYNQEWWSLRLKYQGLCPPVPRTQGDFDPGAKFHIPSSVPYIRYFVSFIIQFQFHEALCQAAGHTGPLHKCDIYQSKEAGQRLATAMKLGFSRPWPEAMQLITGQPNMSASAMLSYFKPLLDWLRTENELHGEKLGWPQYNWTPNSARSEGPLPDSGRVSFLGLDLDAQQARVGQWL
[1]
  Aβ cleavage (ELISA-based assay of intact Aβ): ECE2 and ACE were completely inactive on both Aβ isoforms
[2]
  Aβ cleavage (ELISA-based assay of intact Aβ): ECE2 and ACE were completely inactive on both Aβ isoforms
